These results are taken from the supplement of paper PMC10567573.

The data set is described as follows: protein stability index of a GFP-peptide fusion (GPS, HEK-293T) (PSI 1-6); higher = more stable. To be noted: c terminus: native.
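Also: lentivirally expressed fusion library, cells FACS-sorted into six equal-sized GFP/DsRed ratio bins, PSI computed from sequencing read fractions per bin weighted by bin number.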

B1: SNF8 addP (peptide)
chain: LPALFTDLYSQEITAEEAREALPP
Take B1: the protein stability index (parent: NP_009172.2) amounted to 2.03.

B2: POLD2 addP (peptide)
chain: CQPISFSGFGAEDDDLGGLGLGPP
Regarding B2, the protein stability index (parent: NP_006221.1) is 4.45.

B3: PSMB5 addP (peptide)
chain: DGWIRVSSDNVADLHEKYSGSTPP
For B3, the protein stability index (parent: NP_002788.1) was determined as 4.78.
